Data from PMC5021511 (Methods in cell biology, 2016).

Target: the molecule itself
Assay: FRET or BRET

B1: Cdc11(E294C)-capped and otherwise Cys-less septin heterooctamer, labeled with AF555-maleimide (donor) or AF647-maleimide (acceptor) (complex, S. cerevisiae)
chain 1: MSGIIDASSALRKRKHLKRGITFTVMIVGQSGSGRSTFINTLFGQQVVDTSTTILLPTDTSTEIDLQLREETVELEDDEGVKIQLNIIDTPGFGDSLDNSPSFEIISDYIRHQYDEILLEESRVRRNPRFKDGRVHAALYLINPTGHGLKEIDVEFIRQLGSLVNIIPVISKSDSLTRDELKLNKKLIMEDIDRWNLPIYNFPFDEDEISDEDYETNMYLRTLLPFAIIGSNEVYEMGGDVGTIRGRKYPWGILDVEDSSISDFVILRNALLISHLHDLKNYTHEILYERYRTCALSGESVAAESIRPNLTKLNGSSSSSTTTRRNTNPFKQSNNINNDVLNPASDMHGQSTGENNETYMTREEQIRLEEERLKAFEERVQQELLLKRQELLQREKELREIEARLEKEAKIKQEE
chain 2: MSAATATAAPVPPPVGISNLPNQRYKIVNEEGGTFTVMLAGESGLGKTTFINTLFQTVLKRADGQQHRQEPIRKTVEIDITRALLEEKHFELRVNVIDTPGFGDNVNNNKAWQPLVDFIDDQHDSYMRQEQQPYRTKKFDLRVHAVLYFIRPTGHGLKPIDIETMKRLSTRANLIPVIAKADTLTAQELQQFKSRIRQVIEAQEIRIFTPPLDADSKEDAKSGSNPDSAAVEHARQLIEAMPFAIVGSEKKFDNGQGTQVVARKYPWGLVEIENDSHSDFRKLRALLLRTYLLDLISTTQEMHYETYRRLRLEGHENTGEGNEDFTLPAIAPARKLSHNPRYKEEENALKKYFTDQVKAEEQRFRQWEQNIVNERIRLNGDLEEIQGKVKKLEEQVKSLQVKKSHLK
chain 3: MSLKEEQVSIKQDPEQEERQHDQFNDVQIKQESQDHDGVDSQYTNGTQNDDSERFEAAESDVKVEPGLGMGITSSQSEKGQVLPDQPEIKFIRRQINGYVGFANLPKQWHRRSIKNGFSFNLLVVGPDGIGKTTLMKTLFNNDDIEANLVKDYEEELANDQEEEEGQGEGHENQSQEQRHKVKIKSYESVIEENGVKLNLNVIDTEGFGDFLNNDQKSWDPIIKEIDSRFDQYLDAENKINRHSINDKRIHAVLYFIEPTGHYLKPLDLKFMQSVYEKVNLIPVIAKSDILTDEEILSFKKTIMNQLIQSNIELFKPPIYSNDDAENSHLSERLFSSLPYAVIGSNDIVENYSGNQVRGRSYPWGVIEVDNDNHSDFNLLKNLLIKQFMEELKERTSKILYENYRSSKLAKLGIKQDNSVFKEFDPISKQQEEKTLHEAKLAKLEIEMKTVFQQKVSEKEKKLQKSETELFARHKEMKEKLTKQLKALEDKKKQLELSINSASPNVNHSPVPTKKKGFLR
chain 4: MDPLSSVQPASYVGFDTITNQIEHRLLKKGFQFNIMVVGQSGLGKSTLINTLFASHLIDSATGDDISALPVTKTTEMKISTHTLVEDRVRLNINVIDTPGFGDFIDNSKAWEPIVKYIKEQHSQYLRKELTAQRERFITDTRVHAILYFLQPNGKELSRLDVEALKRLTEIANVIPVIGKSDTLTLDERTEFRELIQNEFEKYNFKIYPYDSEELTDEELELNRSVRSIIPFAVVGSENEIEINGETFRGRKTRWSAINVEDINQSDFVYLREFLIRTHLQDLIETTSYIHYEGFRARQLIALKENANSRSSAHMSSNAIQR
modifications: Alexa Fluor 555 maleimide (donor batch) or Alexa Fluor 647 maleimide (acceptor batch) on C294
Kd: 24.3 ± 13.7 nM
